Source: the supplement of paper PMC9170038

System: MS2 coat protein
Assay: apparent KD of MS2 coat protein; designed switch direction (-1 OFF switch, 1 ON switch): 1; higher = weaker reporter binding
In short: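 RNA switches sharing common flanks were transcribed by stalled E. coli RNA polymerase on Illumina chips. A doubling series of SNAP-549-labelled MS2 coat protein, from 0.7 or 1.5 nM to 3 µM, was applied in Tris-HCl pH 7.5 buffer with KCl, MgCl2, BSA, DTT, tRNA and Tween-20. Each step lasted 0.8–1.5 h at the bottom of the series and 10–20 min at the top. Normalised cluster fluorescence was curve-fitted, giving apparent KD as the per-design median over clusters.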

[1] = input ligand: microRNA oligo, concentration not stated
[2] = Eterna round: R95, input ligand: FMN 200 uM
[3] = Eterna round: R95, input ligand: microRNA oligo, concentration not stated
[4] = Eterna round: R95, input ligand: none

Sequence | apparent KD of MS2 coat protein (input ligand: FMN 200 uM) | apparent KD of MS2 coat protein [1] | apparent KD of MS2 coat protein (input ligand: none) | apparent KD of MS2 coat protein [2] | apparent KD of MS2 coat protein [3] | apparent KD of MS2 coat protein [4]
AAAGGAUGAUGUUACAUGAGGAUCACCCAUGUUGUGAUAACUAAGGAUAUGUGUUUAACCAGUUAAUAGAAGGUAGGAUCAUAA [AK SSNG3-V2-4] (Eterna round: R96, puzzle: Same State NG 3) | 168 nM | 97.4 nM | 124 nM | – | – | –
UUGAAGAAUUAAGGAUAUCGAGUCGUCUAAUUAAACAUGAGGAUCACCCAUGUGGGUUGUGGUAUCGAGAAGGUAAAUUACUAA [JR_SSNG2_Sub099] (Eterna round: R96, puzzle: Same State NG 2) | 74.4 nM | 65.3 nM | 95.1 nM | – | – | –
AUAAGUUUGAUGCUCGUCUCUCCGUACAGACAUGAGGAUCACCCAUGUAGUCGGGCAGUAGCCCGGCCAGUAUGGCC [Raatbeor] (puzzle: Sensor for hsa-mir-208a) | – | – | – | 103 nM | 28.8 nM | 119 nM
AUUUUAAAUGCAGGAUAUGAUUAACAUGAGGAUCACCCAUGUGGUGUUGUGAGUAAGGAGAGUGAUCAGAAGGGCAUUUUUUUU [JMF's solution 95] (Eterna round: R96, puzzle: Same State NG 2) | 748 nM | 546 nM | 714 nM | – | – | –
GGGUGUGGAAGGAAAGACAGGGAAAGGAAACAUGAGGAUCACCCAUGUGAAGGAAGAAAGGGAGCUCGUCUUAUAAG [JR_SHM208A_Sub002] (puzzle: Sensor for hsa-mir-208a) | – | – | – | 26 nM | 27.6 nM | 35 nM
UGGUACAUGGGAGGAUAUCAUGUAGAAACAUGAGGAUCACCCAUGUAGAUGGCCGGUAACCGGGAUGAGAAGGCCCAUGUACCU [JL SSNG1 3.64] (Eterna round: R96, puzzle: Same State NG 2) | 27 nM | 22.4 nM | 30.3 nM | – | – | –
GGUACCAUCACAGGAUAUGCUAUCCUUUGGGUAGCAGAAGGGUGAUACAUGAGGAUCACCCAUGUGGUGCCAGGGCGUGAGCCC [JL SSNG1 1.91] (Eterna round: R96, puzzle: Same State NG 1) | 901 nM | 44.5 nM | 331 nM | – | – | –
GCCGUAUACAUGAGGAUCACCCAUGUUGACGCGAGAGUGGAUGAGGAUAUCGAUGGGUUUCCCGUCGAGAAGGCGUGGGUCGGC [JL SSNG3 3.00] (Eterna round: R96, puzzle: Same State NG 3) | 49.8 nM | 30.5 nM | 46.1 nM | – | – | –
UCUUGGUUUUUGCUCGUUUUUUGUGUUGAACAUGAGGAUCACCCAUGUAUUGUACGGUCCGAUUUGAUGAUGGUCCA [JMF 42] (puzzle: Sensor for hsa-mir-208a) | – | – | – | 31.4 nM | 22.2 nM | 35.1 nM
UAGUUUUAGCGAGGAUAUCGUAUGUUUAAUUUUUUAUAUUGUUUACAUGAGGAUCACCCAUGUUACGAGAAGGCGCAUGGGAUU [JR_SSNG2_Sub080] (Eterna round: R96, puzzle: Same State NG 2) | – | 273 nM | – | – | – | –
UUAGAAUUGCAAGGAUAUCUAAUUUAGAUAGUAAGAGAAGGUGCUUUAUAGUUACAUGAGGAUCACCCAUGUUUUUUUGUUUAU [JR_SSNG1_Sub059] (Eterna round: R96, puzzle: Same State NG 1) | – | 26.5 nM | – | – | – | –
UUAAUUUACUGAGGAUAUCGUGUCGACUGAGUUGACAUGAGGAUCACCCAUGUGAGAAGUGGUAUCGAGAAGGCAGUAUUCAUA [JR_SSNG2_Sub023] (Eterna round: R96, puzzle: Same State NG 2) | 16.1 nM | 28.9 nM | 42 nM | – | – | –
ACAUGAGACUUAGGAUAUGUUGUACCUACAUGUGACAUGAGGAUCACCCAUGUGGUAAGUAUGAGGCAGAAGGGAGAGAUAUGU [Equivalence 47 - Jieux - Same State NG 2] (Eterna round: R96, puzzle: Same State NG 2) | 54.3 nM | 85.6 nM | 77.7 nM | – | – | –
AUAGUUGCCGAAGGAUAUGAUGAGGAUCACCCAUCAGAAGGUUGGCUAUUGGGCUGACAUGAGGAUCACCCAUGUUUCGGUGUU (Eterna round: R96, puzzle: Same State NG 1) | 19.2 nM | 17.1 nM | 29.1 nM | – | – | –
UGUUAUUUGACAGGAUAUUGAUUGUAAAGUUUUUACAUGAGGAUCACCCAUGUUGUUCAUUCGAACAAGAAGGGUCAAGUUUUU [JR_SSNG2_Sub019] (Eterna round: R96, puzzle: Same State NG 2) | 1070 nM | 48.2 nM | 172 nM | – | – | –
UGGAUCUAGGCUUGCCUGGGUCCAUGUUGACAUGAGGAUCACCCAUGUGUAUUUUUUUUGCUUUUUGUUUGUCAACU [JL A Humble Attempt mod 11] (puzzle: Sensor for hsa-mir-208a) | – | – | – | 25.2 nM | 12.7 nM | 26.5 nM
UCUUGGUUUUUGCUCGUUUUUUGUGUUGAACAUGAGGAUCACCCAUGUAUUGUACGGUCCAAUUUAGUAAUGGUCCG [JMF 26] (puzzle: Sensor for hsa-mir-208a) | – | – | – | 25.4 nM | 13.2 nM | 23.6 nM
CUAAAACAUGAGGAUCACCCAUGUCAACAAAGUCGAGGAUAUGGGCAAAUAAAAUAAGAACCAGAAGGCGAAUAAA [salish99_SS1_r3_015] (puzzle: Same State 1) | – | – | – | 42.8 nM | 518 nM | 518 nM
UUUCUCAUGUAAGGAUAUGCAGCCGUUUCGGCUGCAGAAGGUACUAUAAUACAUGAGGAUCACCCAUGUCUCUAUUAUUUAGUU [JL SSNG1 1.44] (Eterna round: R96, puzzle: Same State NG 1) | 84.7 nM | 39.9 nM | 47.1 nM | – | – | –
GCGCAGCUGCGCAAUAUUACAUGAGGAUCACCCAUGUUGUCACAGGAUAUGCUGGACAGCGUCGAGCAGAAGGGUGACCAAACA [Zasovexe] (Eterna round: R96, puzzle: Same State NG 3) | 191 nM | 97.2 nM | 300 nM | – | – | –
UUUUUUAAGACGAGACAAGCUUUUUGAUCACAUGAGGAUCACCCAUGUCUCGUCUUAUUUUUUUUUUUUUUUUUUUU [BA Sensor hsa-mir-208a - 2 - 3] (puzzle: Sensor for hsa-mir-208a) | – | – | – | 21.4 nM | 5.76 nM | 16.9 nM
UGUUAGUAGUGAGGAUAUACAUACACCUUACAUGAGGAUCACCCAUGUUUUAAUAUUGAUAGUUAGUAGAAGGCACAUGAUUAU [JR_SSNG2_Sub043] (Eterna round: R96, puzzle: Same State NG 2) | 22.1 nM | 35.8 nM | 45.7 nM | – | – | –
AGUCCAGCCUGAGCUGGACAGAAGCAUGUACAUGAGGAUCACCCAUGUCAUGUACAAGCUUUUUGCUCGUCUUAAAA [Zipper 46 - 3] (puzzle: Sensor for hsa-mir-208a) | – | – | – | 422 nM | 15.9 nM | 586 nM
